Tested on: engineered chimeric receptor SEQ ID NO: 33 and its mutants (human α7-nAChR ligand binding domain / human GlyRα1 ion pore domain) in Lenti-X 293T cells
Assay: YFP fluorescence quenching anion reporter plate reader assay (percent quench, EC50)
Assay type: cell-based
Conditions: for YFP fluorescence quenching using CNL001 (percent quench): receptor named in row; for YFP fluorescence quenching using Varenicline, 3 nM var: ligand Varenicline 3 nM; for YFP fluorescence quenching using Varenicline, 30 nM var: ligand Varenicline 30 nM; for YFP fluorescence quenching using Varenicline, 300 nM var: ligand Varenicline 300 nM; for YFP fluorescence quenching using Varenicline, 500 nM var: ligand Varenicline 500 nM; for YFP fluorescence quenching using Varenicline, 1 uM var: ligand Varenicline 1 uM
In short: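 Percent quench compares mean YFP signal over the final 10 s with the 15 s baseline before ligand, added in iodide-containing extracellular solution (pH 7.2). Cells were LX293T carrying a YFP anion reporter, transiently transfected with the channel construct; plates were preincubated 30 min at 37 °C.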

B1: CODA405: engineered receptor: Y210V in SEQ ID NO: 33 (protein)
chain: MRCSPGGVWLALAASLLHVSLQGEFQRKLYKELVKNYNPLERPVANDSQPLTVYFSLSLLQIMDVDEKNQVLTTNIWLQMSWTDHYLQWNVSEYPGVKTVRFPDGQIWKPDILLYNSADERFDATFHTNVLVNSSGHCQYLPPGIFKSSCPMDLKNFPMDVQTCKLKFGSWSYGGWSLDLQMQEADISGYIPNGEWDLVGIPGKRSERFVECCKEPYPDVTFTVTMRRRMGYYLIQMYIPSLLIVILSWISFWINMDAAPARVGLGITTVLTMTTQSSGSRASLPKVSYVKAIDIWMAVCLLFVFSALLEYAAVNFVSRQHKELLRFRRKRRHHKSPMLNLFQEDEAGEGRFNFSAYGMGPACLQAKDGISVKGANNSNTTNPPPAPSKSPEEMRKLFIQRAKKIDKISRIGFPMAFLIFNMFYWIIYKIVRREDVHNQ
modifications: synthetic sequence of chimeric LGIC
1 nM CNL001, first column so headed
  YFP fluorescence quenching using CNL001 (percent quench): −16.246%
1 nM CNL001, second column so headed
  YFP fluorescence quenching using CNL001 (percent quench): −4.217%
3 nM brd (TC-5619/Bradanicline)
  YFP fluorescence quenching using TC-5619/Bradanicline (percent quench): 9.92%
10 nM CNL001, first column so headed
  YFP fluorescence quenching using CNL001 (percent quench): −6.142%
10 nM CNL001, second column so headed
  YFP fluorescence quenching using CNL001 (percent quench): −10.003%
30 nM brd (TC-5619/Bradanicline)
  YFP fluorescence quenching using TC-5619/Bradanicline (percent quench): 4.37%
50 nM CNL001, first column so headed
  YFP fluorescence quenching using CNL001 (percent quench): −11.054%
50 nM CNL001, second column so headed
  YFP fluorescence quenching using CNL001 (percent quench): −10.06%
50 nM abt (ABT-126)
  YFP fluorescence quenching using ABT-126 (percent quench): −2.9%
100 nM CNL001, first column so headed
  YFP fluorescence quenching using CNL001 (percent quench): −3.832%
100 nM CNL001, second column so headed
  YFP fluorescence quenching using CNL001 (percent quench): −3.784%
100 nM CNL002
  YFP fluorescence quenching (percent quench): −14.3%
100 nM abt (ABT-126)
  YFP fluorescence quenching using ABT-126 (percent quench): −2.06%
100 nM azd0328
  YFP fluorescence quenching using AZD-0328 (percent quench): −8.13%
300 nM abt (ABT-126)
  YFP fluorescence quenching using ABT-126 (percent quench): −0.19%
300 nM azd0328
  YFP fluorescence quenching using AZD-0328 (percent quench): −3.35%
300 nM brd (TC-5619/Bradanicline)
  YFP fluorescence quenching using TC-5619/Bradanicline (percent quench): 59%
1 uM CNL001, first column so headed
  YFP fluorescence quenching using CNL001 (percent quench): 1.129%
1 uM CNL001, second column so headed
  YFP fluorescence quenching using CNL001 (percent quench): 7.1%
1 uM CNL002
  YFP fluorescence quenching (percent quench): −7.56%
1 uM abt (ABT-126)
  YFP fluorescence quenching using ABT-126 (percent quench): −3.64%
10 uM ach (acetylcholine)
  YFP fluorescence quenching (percent quench): −6.31%
30 uM CNL002
  YFP fluorescence quenching (percent quench): −2.02%
30 uM azd0328
  YFP fluorescence quenching using AZD-0328 (percent quench): −2.86%
100 uM ach (acetylcholine)
  YFP fluorescence quenching (percent quench): −14.48%
1 mM ach (acetylcholine)
  YFP fluorescence quenching (percent quench): −2.82%
3 mM ach (acetylcholine)
  YFP fluorescence quenching (percent quench): 1.06%
Ligand Facinicline 30 nM
  YFP fluorescence quenching using Facinicline, 30 nM fac: −26.25
Ligand Facinicline 300 nM
  YFP fluorescence quenching using Facinicline, 300 nM fac: −23.52
Ligand Facinicline 30 uM
  YFP fluorescence quenching using Facinicline, 30 uM fac: 0.83
Ligand TC-6987 1 uM
  YFP fluorescence quenching using TC-6987, 1 uM tc6987: −22.63
Ligand TC-6987 10 uM
  YFP fluorescence quenching using TC-6987, 10 uM tc6987: −23.03
Ligand TC-6987 500 uM
  YFP fluorescence quenching using TC-6987, 500 uM tc6987: −40.88
First column
  YFP fluorescence quenching using Varenicline, 3 nM var: 7.317
  YFP fluorescence quenching using Varenicline, 30 nM var: 9.457
  YFP fluorescence quenching using Varenicline, 300 nM var: 15.503
  YFP fluorescence quenching using Varenicline, 500 nM var: 13.427
  YFP fluorescence quenching using Varenicline, 1 uM var: 9.032
Second column
  YFP fluorescence quenching using Varenicline, 3 nM var: 7.643
  YFP fluorescence quenching using Varenicline, 30 nM var: 9.134
  YFP fluorescence quenching using Varenicline, 300 nM var: 11.954
  YFP fluorescence quenching using Varenicline, 500 nM var: 10.784
  YFP fluorescence quenching using Varenicline, 1 uM var: 11.591
